Substitutions are numbered along the chain they refer to.
T1: P. falciparum P113, biotinylated bait (P. falciparum, UniProt Q8ILP3 23-945, biotin (enzymatic monobiotinylation; site not stated))
T1 construct: source: HEK293E, transient transfection, secreted; enzymatically monobiotinylated bait
T1 sequence: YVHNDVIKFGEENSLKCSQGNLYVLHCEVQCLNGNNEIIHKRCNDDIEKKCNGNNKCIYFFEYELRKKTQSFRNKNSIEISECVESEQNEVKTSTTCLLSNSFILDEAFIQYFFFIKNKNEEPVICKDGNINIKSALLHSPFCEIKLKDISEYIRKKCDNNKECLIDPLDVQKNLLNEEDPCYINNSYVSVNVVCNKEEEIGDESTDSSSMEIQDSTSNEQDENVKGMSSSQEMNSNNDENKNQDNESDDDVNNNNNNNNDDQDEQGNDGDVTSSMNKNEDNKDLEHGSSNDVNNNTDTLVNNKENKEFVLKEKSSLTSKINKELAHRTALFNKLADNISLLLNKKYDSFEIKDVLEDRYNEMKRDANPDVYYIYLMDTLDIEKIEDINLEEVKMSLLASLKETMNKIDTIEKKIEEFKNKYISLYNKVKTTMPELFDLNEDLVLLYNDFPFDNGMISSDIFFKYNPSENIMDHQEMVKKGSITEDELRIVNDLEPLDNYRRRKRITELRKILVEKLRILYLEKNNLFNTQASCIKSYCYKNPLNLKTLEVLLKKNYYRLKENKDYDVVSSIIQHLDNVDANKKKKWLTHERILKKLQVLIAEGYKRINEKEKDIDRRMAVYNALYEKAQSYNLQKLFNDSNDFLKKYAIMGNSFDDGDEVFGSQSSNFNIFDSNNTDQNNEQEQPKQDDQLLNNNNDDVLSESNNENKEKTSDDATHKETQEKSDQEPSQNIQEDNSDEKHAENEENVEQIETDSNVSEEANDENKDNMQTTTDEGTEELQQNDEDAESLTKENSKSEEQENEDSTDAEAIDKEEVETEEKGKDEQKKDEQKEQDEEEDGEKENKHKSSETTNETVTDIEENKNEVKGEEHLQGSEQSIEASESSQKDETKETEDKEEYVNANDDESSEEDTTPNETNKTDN

T2: P. falciparum RH5 (reticulocyte-binding protein homologue 5) (P. falciparum (3D7), UniProt Q8IFM5 25-526)
T2 sequence: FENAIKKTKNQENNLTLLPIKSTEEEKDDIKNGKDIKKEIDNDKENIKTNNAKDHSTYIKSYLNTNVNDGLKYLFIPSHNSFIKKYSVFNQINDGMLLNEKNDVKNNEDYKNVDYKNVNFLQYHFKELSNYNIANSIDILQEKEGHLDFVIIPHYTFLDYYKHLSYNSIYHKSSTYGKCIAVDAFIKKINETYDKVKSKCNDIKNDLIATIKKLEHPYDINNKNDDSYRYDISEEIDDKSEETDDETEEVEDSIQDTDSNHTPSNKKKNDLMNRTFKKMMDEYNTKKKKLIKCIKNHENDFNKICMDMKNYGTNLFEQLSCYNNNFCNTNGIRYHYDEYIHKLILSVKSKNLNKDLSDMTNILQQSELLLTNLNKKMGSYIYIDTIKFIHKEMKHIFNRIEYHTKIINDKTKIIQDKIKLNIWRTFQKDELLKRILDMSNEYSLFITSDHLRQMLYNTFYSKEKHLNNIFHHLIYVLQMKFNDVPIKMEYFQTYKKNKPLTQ

B1: introgressed ancestral RH5 (reticulocyte-binding protein homologue 5) (ligand)
chain: T2 sequence with H124D, S173Y, Y176H, C179Y, T192R, K195Q
B2: P. falciparum RH5 (reticulocyte-binding protein homologue 5) (ligand)
chain: T2 sequence
B3: human basigin, entire ectodomain (receptor)
chain: EPGTVFTTVEDLGSKILLTCSLNDSATEVTGHRWLKGGVVLKEDALPGQKTEFKVDSDDQWGEYSCVFLPEPMGTANIQLHGPPRVKAVKSSEHINEGETAMLVCKSESVPPVTDWAWYKITDSEDKALMNGSESRFFVSSSQGRSELHIENLNMEADPGQYRCNGTSSKGSDQAIITLRVRSHLAAL
modifications: enzymatically monobiotinylated
notes: also called HsBSG; BSG; source: HEK293E, transient transfection, secreted, enzymatically monobiotinylated
B4: chimpanzee basigin, entire ectodomain (receptor)
chain: ASGAAGTVFTTVEDLGSKILLTCYMNDSATEVTGHRWLKGGVVLEEDALPGQKTEFKVDSDDQWGEYSCVFLPEPMGTANIQLHGPPRVKAVKSSEHINEGETAVLVCKSESVPPVTDWAWYKITDSGDKALMNGSESRFFVSSLQGRSELHIENLNMEADPGQYRCNGNSSEGSDQAVITLRVRSHLA
modifications: enzymatically monobiotinylated

Experiments:
Experiment in all cases: SPR
Settings in all cases: both partners purified
[1] = target: B3
[2] = target: T3, gorilla basigin, entire ectodomain (gorilla, enzymatically monobiotinylated)
T3 construct: also called gorilla BSG; source: HEK293E, transient transfection, secreted, enzymatically monobiotinylated

[3] = target: T1, P. falciparum P113, biotinylated bait
[4] = target: T2, P. falciparum RH5 (reticulocyte-binding …)
[5] = target: P. reichenowi RH5 (P. reichenowi, UniProt B4X6H6 1-535)
[6] = target: P. gaboni RH5 (P. gaboni)

B1 gave a Kd [1] of 2300 ± 100 nM and a Kd [2] of 3000 ± 300 nM.

B2: binds [3].

B3 showed a Kd [4] of 1500 ± 200 nM.

B4 showed a Kd [5] of 4300 ± 500 nM and a Kd [6] of 2900 ± 100 nM.

Source: PMC6793842 (PLoS Biology, 2019)
